Reference: publication PMC5473807, “Distribution and kinetics of the Kv1.3-blocking peptide HsTX1[R14A] in experimental rats” (Scientific Reports, 2017)

Legend:
[1] = Distribution in the blood compartments; type: in vivo; conditions: rat, i.v., 0-4 h
Experimental: (§1) The analysis of [^64Cu]Cu-NOTA-HsTX1[R14A] degradation was analysed in one rat after single intravenous injection. The gas-anaesthetised (8% desflurane, 30% oxygen, air) rat was prepared on a heating bed for the blood sampling. A needle catheter was inserted in a tail vein and fixed for the injection of the radiotracer and supplementation of the withdrawn volume by E-153 (electrolyte infusion solution). A small incision on the right hind limb was made and a small superficial artery was exposed. A thin tube (polyethylene, 0.3 mm inner and 0.6 mm outer diameter) was inserted, moved to the femoral artery and fixed. Arterial blood samples were collected at 1, 3, 5, 10, 20, 30, 120 min p.i of the [^64Cu]Cu-NOTA-HsTX1[R14A]. After the end of experiment the anaesthetised animals were euthanised by infusion of KCl solution. For the differentiation of the activity distribution in the blood compartments (Fig. 3b) were blood samples centrifuged (3 min at 14,000 × g) to obtain the plasma (plasma total and blood cells in the precipitate). One kidney was homogenised with PBS (30% w/v) and then centrifuged as described for the blood samples. Urine was treated in analogy. All the supernatants from blood, kidney and urine samples were mixed with equal volume of MeCN to precipitate the protein fraction. The samples were again centrifuged (3 min at 14,000 × g), resulting in the precipitate the protein bound fraction (plasma proteins) and the supernatants (e.g. plasma water fraction) were analysed by radio-TLC with RP18 aluminium foil, MeCN/0.1% TFA mixed with H2O/0.1% TFA (v/v 1:1). The TLC plates were measured by radioluminography as described above. Aliquots of the whole blood samples and of all supernatants were measured for the ^64Cu activity concentration in a well counter.

[2] = Metabolite analysis by radio-TLC; type: in vivo; conditions: rat, i.v., one rat
Experimental: as §1

[3] = Tolerability in the animal experiments; type: in vivo, rat; conditions: rats, injections of up to 0.1 mg peptide/kg body weight, also anesthetised animals

CSCC[C@@H]1NC(=O)[C@@H]2CSSC[C@H](NC(=O)[C@H](CO)NC(=O)[C@H](C)NC(=O)COCCOCCNC(=O)CN3CCN(CC(=O)O)CCN(CC(=O)O)CC3)C(=O)N[C@@H](CCCNC(=N)N)C(=O)N[C@@H]([C@@H](C)O)C(=O)N3CCC[C@H]3C(=O)N[C@@H](CCCCN)C(=O)N[C@@H](CC(=O)O)C(=O)N[C@H]3CSSC[C@H](NC(=O)[C@H](CCCCN)NC(=O)[C@H](CCCNC(=N)N)NC(=O)[C@H](CC(N)=O)NC1=O)C(=O)N[C@@H](CCCCN)C(=O)N[C@H]1CSSC[C@H](NC(=O)[C@@H]4CCCN4C(=O)[C@H](CC(=O)O)NC(=O)[C@H](C)NC3=O)C(=O)N[C@@H](C)C(=O)N[C@@H](CCCCN)C(=O)N[C@@H](CCC(=O)O)C(=O)N[C@@H]([C@@H](C)O)C(=O)NCC(=O)N[C@@H](CSSC[C@@H](C(N)=O)NC(=O)[C@H](CCCNC(=N)N)NC(=O)[C@H](CC(N)=O)NC1=O)C(=O)N1CCC[C@H]1C(=O)N[C@@H](Cc1ccc(O)cc1)C(=O)NCC(=O)N[C@@H](CCCCN)C(=O)N2 [[^64Cu]Cu-NOTA-HsTX1[R14A], metal not drawn]
fraction bound to plasma proteins ([1]; MeCN precipitate, % of total blood activity): 5 ± 3% | fraction in blood plasma ([1]; centrifugation 3 min at 14,000 x g): 82 ± 4 % of the whole blood ^64Cu activity | fraction in plasma water ([1]; supernatant after MeCN precipitation, % of total blood activity): 75 ± 3% | plasma activity still present as original compound ([2]; arterial blood plasma, after 4 h): 85% | metabolic stability in arterial blood plasma ([2]; first 2 h): without detectable radioactive metabolic products | original compound in the kidneys ([2]; kidney extract, 4 h): 31% | original compound in the urine ([2]; urine, 4 h): 15% | toxic effects [3]: did not show toxic effects
